Consider 1 molecule from paper PMC7699296, “Dual-Channel Stopped-Flow Apparatus for Simultaneous Fluorescence, Anisotropy, and FRET Kinetic Data Acquisition for Binary and Ternary Biological Complexes” (Biosensors, 2020).

One may read the kon as the second-order rate constant of association. Low readings indicate slow association, high ones fast association. As usually defined, the Kd is the equilibrium constant for the complex coming apart.

Conditions in all cases: both partners purified
The target in test [1] is T1, full-length Tata Binding Protein from Saccharomyces cerevisiae (Saccharomyces cerevisiae, UniProt P13393 1-240).
T1 construct: also called yTBP; TBP; source: Escherichia coli, purified
T1 sequence (looked up): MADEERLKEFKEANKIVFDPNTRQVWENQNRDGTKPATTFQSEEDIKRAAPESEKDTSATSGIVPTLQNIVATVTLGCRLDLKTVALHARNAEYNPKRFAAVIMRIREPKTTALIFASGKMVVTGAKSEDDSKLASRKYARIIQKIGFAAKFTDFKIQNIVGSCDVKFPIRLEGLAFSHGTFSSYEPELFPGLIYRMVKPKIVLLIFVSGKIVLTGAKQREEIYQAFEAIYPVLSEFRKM
The test is described as follows: stopped-flow fluorescence anisotropy kinetics (dual-channel, rF(t)); 17 °C; preformed yTBP (220 nM)-AdMLP31ds*Flint (20 nM) in syringe 1, 850 nM TFIIA in syringe 2 (concentrations after mixing); 25 mM Tris, 100 mM KCl, 5 mM MgCl2, 1 mM CaCl2, 2 mM DTT; biphasic fit, kon from the fast eigenvalue.

Test [2] deals with T1, full-length Tata Binding Protein from …. Briefly: stopped-flow fluorescence anisotropy kinetics (dual-channel, rF(t)); derived over the range 15 °C to 25 °C from the kon values: van't Hoff plot, and KD estimated with a dissociation rate constant cited from other work.
For test [3] the target is unchanged. Briefly: stopped-flow fluorescence anisotropy kinetics (dual-channel, rF(t)); 25 °C; preformed yTBP (220 nM)-AdMLP31ds*Flint (20 nM) in syringe 1, 850 nM TFIIA in syringe 2 (concentrations after mixing); 25 mM Tris, 100 mM KCl, 5 mM MgCl2, 1 mM CaCl2, 2 mM DTT; biphasic fit, kon from the fast eigenvalue. A general note: Polarisation of emitted light reports the rotation of a fluorescent probe.

Test [4] has the same target. The test is described as follows: stopped-flow fluorescence anisotropy kinetics (dual-channel, rF(t)); 15 °C; preformed yTBP (220 nM)-AdMLP31ds*Flint (20 nM) in syringe 1, 850 nM TFIIA in syringe 2 (concentrations after mixing); 25 mM Tris, 100 mM KCl, 5 mM MgCl2, 1 mM CaCl2, 2 mM DTT; biphasic fit, kon from the fast eigenvalue.

B1: yeast Transcription Factor II A (complex)
chain 1: MSNAEASRVYEIIVESVVNEVREDFENAGIDEQTLQDLKNIWQKKLTETKVTTFSWDNQFNEGNINGVQNDLNFNLATPGVNSSEFNIKEENTGNEGLILPNINSNNNIPHSGETNINTNTVEATNNSGATLNTNTSGNTNADVTSQPKIEVKPEIELTINNANITTVENIDDESEKKDDEEKEEDVEKTRKEKEQIEQVKLQAKKEKRSALLDTDEVGSELDDSDDDYLISEGEEDGPDENLMLCLYDKVTRTKARWKCSLKDGVVTINRNDYTFQKAQVEAEWV
chain 2: MAVPGYYELYRRSTIGNSLVDALDTLISDGRIEASLAMRVLETFDKVVAETLKDNTQSKLTVKGNLDTYGFCDDVWTFIVKNCQVTVEDSHRDASQNGSGDSQSVISVDKLRIVACNSKKSE
modifications: Construct and limits are not given; the full-length TOA1/TOA2 heterodimer is assumed. Species is inferred from the label yTFIIA and the S. cerevisiae TBP used with it.
With B1, the values for the kon in test [1], in test [3] and in test [4] were 1.84e+06 M⁻¹ s⁻¹, 4.68e+06 M⁻¹ s⁻¹ and 1.45e+06 M⁻¹ s⁻¹, respectively. Also, the Kd in test [2] was 2.1 to 6.6 nM. Besides, the dH in test [2] was 19.6 ± 1.6 kcal/mol.
